Tested on: MS2 coat protein
Test: apparent KD of MS2 coat protein; designed switch direction (-1 OFF switch, 1 ON switch): 1; higher = weaker reporter binding
Outline: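 On Illumina chips, designed RNA switches with common flanks were made by stalled E. coli RNA polymerase. Titrations with SNAP-549-labelled MS2 coat protein, doubling from 0.7 or 1.5 nM to 3 µM, were done with no input, with 200 uM small-molecule ligand, or with an oligonucleotide input. Apparent KD is the median per design over clusters, from curve fits of normalised cluster fluorescence.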

[1] = input ligand: microRNA oligo, concentration not stated
[2] = Eterna round: R95, input ligand: FMN 200 uM
[3] = Eterna round: R95, input ligand: microRNA oligo, concentration not stated
[4] = Eterna round: R95, input ligand: none

## CACGUCCAGGUAGGAUAUGAGGUGCCACAGGGAAAAGCCUGUGGACAUGAGGAUCACCCAUGUCCUCAGAAGGGCCGGACGUGG [Reanorge] (Eterna round: R96, puzzle: Same State NG 2)
Input ligand: FMN 200 uM
  apparent KD of MS2 coat protein: 17.3 nM
[1]
  apparent KD of MS2 coat protein: 52.8 nM
Input ligand: none
  apparent KD of MS2 coat protein: 72 nM

## GAGUGGUGAAAAGGAUAUGCAUUGUUAUUCACUGUAGAAGGUUUUAACAUGAGGAUCACCCAUGUAGGACUAUUCCUGUGUUUU [Parity 60 - Jieux - Same State NG 1] (Eterna round: R96, puzzle: Same State NG 1)
Input ligand: FMN 200 uM
  apparent KD of MS2 coat protein: 17.6 nM
[1]
  apparent KD of MS2 coat protein: 14.8 nM
Input ligand: none
  apparent KD of MS2 coat protein: 23.2 nM

## GCGCUCCAAGGAGCUGCGACAUGAGGAUCACCCAUGUAAUCACAGGAUAUGCGAUUCCGAAUUUUGCAGAAGGGUGAUAAGAAC [Asorila] (Eterna round: R96, puzzle: Same State NG 3)
Input ligand: FMN 200 uM
  apparent KD of MS2 coat protein: 482 nM
[1]
  apparent KD of MS2 coat protein: 491 nM
Input ligand: none
  apparent KD of MS2 coat protein: 241 nM

## AGUCCAGCCAGAGCUGGACAAAAGCAUGUACAUGAGGAUCACCCAUGUUCAUGUACAAGCUUUUUGCUCGUCUUAAG [Mat - hsa-mir-208a - Mod of JL - 64] (puzzle: Sensor for hsa-mir-208a)
[2]
  apparent KD of MS2 coat protein: 583 nM
[3]
  apparent KD of MS2 coat protein: 15.9 nM
[4]
  apparent KD of MS2 coat protein: 547 nM

## GCUCGAUGAGCGGUUUACAUGAGGAUCACCCAUGUACGUGGGCAGGAUAUUUACGUGCUUUGUGUAGAGAAGGGCCCAUCGAGC [SameState NG3 #73] (Eterna round: R96, puzzle: Same State NG 3)
Input ligand: FMN 200 uM
  apparent KD of MS2 coat protein: 39.8 nM
[1]
  apparent KD of MS2 coat protein: 191 nM
Input ligand: none
  apparent KD of MS2 coat protein: 405 nM

## GCGAUAUGAUGUUACAUGAGGAUCACCCAUGUAGCGACAGCUAAGGAUAUUGGAAAGGGAGGAGACGAGAAGGUAGGGUCACGC [AK SSNG3-V2-24] (Eterna round: R96, puzzle: Same State NG 3)
Input ligand: FMN 200 uM
  apparent KD of MS2 coat protein: 22.9 nM
[1]
  apparent KD of MS2 coat protein: 15.8 nM
Input ligand: none
  apparent KD of MS2 coat protein: 19.7 nM

## UUAACAUGAGGAUCACCCAUGUAUAGGGAGUUUGCAAUUUGACAGGAUAUUGAAGAUGUAGAUAGCAAGAAGGGUCGGUAGUCU [JR_SSNG3_Sub004] (Eterna round: R96, puzzle: Same State NG 3)
Input ligand: FMN 200 uM
  apparent KD of MS2 coat protein: 46.1 nM
[1]
  apparent KD of MS2 coat protein: 32.4 nM
Input ligand: none
  apparent KD of MS2 coat protein: 43.9 nM

## CGUCGUUUGCUAGGAUAUCGCUAUACAUGAGGAUCACCCAUGUUUACCACGCUGGUUUUUCAUACCGAGAAGGAUUCUGAUGUU [salish99_SSNG02_r04_018] (Eterna round: R96, puzzle: Same State NG 2)
Input ligand: FMN 200 uM
  apparent KD of MS2 coat protein: 24 nM
[1]
  apparent KD of MS2 coat protein: 28.7 nM
Input ligand: none
  apparent KD of MS2 coat protein: 34.1 nM

## AAUUAUUAACAUGAGGAUCACCCAUGUAUUUAUGUUAGUAUCUAACAUAGUCUUAUUAAGCUUUGUGAUUGUCUUAU [Cole's First Solution] (puzzle: Sensor for hsa-mir-208a version 2)
[2]
  apparent KD of MS2 coat protein: 29.8 nM
[3]
  apparent KD of MS2 coat protein: 32.6 nM
[4]
  apparent KD of MS2 coat protein: 38.8 nM

## UUAAAACAUGAGGAUCACCCAUGUCAACAAAGUCGAGGAUAUGGGCAAAUAAAAUAAGAACCAGAAGGCGAAUAAG [salish99_SS1_r3_005] (puzzle: Same State 1)
[2]
  apparent KD of MS2 coat protein: 36.9 nM
[3]
  apparent KD of MS2 coat protein: 221 nM
[4]
  apparent KD of MS2 coat protein: 314 nM

## AUUUAACAAGCUUUUUGCUCGUCUUAUAAACAUGAGGAUCACCCAUGUAAUAGCGUGAGAGUAAUUAAUUUAAUUAU [JMF 100] (puzzle: Sensor for hsa-mir-208a)
[2]
  apparent KD of MS2 coat protein: 15.5 nM
[3]
  apparent KD of MS2 coat protein: 32.7 nM
[4]
  apparent KD of MS2 coat protein: 14.1 nM

## AUAUGAGAAGCAGGAUAUGCGGAGAAGAAAGAAGCAGAAGGGCUUAUGGGACAACAUGAGGAUCACCCAUGUUCUCUGCGAUGA [AK SSNG1-V2-3.1] (Eterna round: R96, puzzle: Same State NG 1)
Input ligand: FMN 200 uM
  apparent KD of MS2 coat protein: 60.6 nM
[1]
  apparent KD of MS2 coat protein: 148 nM
Input ligand: none
  apparent KD of MS2 coat protein: 135 nM

## GACAGACAUGAGGAUCACCCAUGUACAAACGUACAAGGAUAUGUGUGGAAACCGUACUAUACAGAAGGUGUCUGUC [SS1 - 90] (Eterna round: R96, puzzle: Same State 1)
[1]
  apparent KD of MS2 coat protein: 71.3 nM

## AUUAUAUAUGCAGGAUAUGAUUAACAUGAGGAUCACCCAUGUGGUGUUGUGAGUAAGGAGAGUGAUCAGAAGGGCAUUUUUUUU [JMF's solution 63] (Eterna round: R96, puzzle: Same State NG 2)
Input ligand: FMN 200 uM
  apparent KD of MS2 coat protein: 852 nM
[1]
  apparent KD of MS2 coat protein: 163 nM
Input ligand: none
  apparent KD of MS2 coat protein: 353 nM

## GGAGCCGGUACUGAGGAUAUUCAUAUUAAAACAUGAGGAUCACCCAUGUAGGCCAGAAGGCCUUGGGAGAAGGCGGACCAGCUCG [Atgexeedri - 1] (Eterna round: R96, puzzle: Same State 2)
Input ligand: FMN 200 uM
  apparent KD of MS2 coat protein: 27.5 nM
[1]
  apparent KD of MS2 coat protein: 302 nM
Input ligand: none
  apparent KD of MS2 coat protein: 417 nM

## AGUCCAGCGAAAGCUGGACAAAAGCAUGUACAUGAGGAUCACCCAUGUUCAUGUACAAGUUUUUUGCUCGUCUUAAA [JL mod - D95 - 13] (puzzle: Sensor for hsa-mir-208a)
[2]
  apparent KD of MS2 coat protein: 33.7 nM
[3]
  apparent KD of MS2 coat protein: 10.4 nM
[4]
  apparent KD of MS2 coat protein: 32 nM

## AGCGAGAUAGGCGAGGAUAUGCUUUUUUGCACAUGAGGAUCACCCAUGUCUUUGUUUUUUGUUUUGCAGAAGGCGCAUUCUCUUU [ak unbound state multiloop] (puzzle: Same State 2)
[2]
  apparent KD of MS2 coat protein: 32.7 nM
[3]
  apparent KD of MS2 coat protein: 14.3 nM
[4]
  apparent KD of MS2 coat protein: 12.7 nM

## GUCAACACAAUAGGAUAUUAGACCAUGGAGCCGUACAUGAGGAUCACCCAUGUCUUAGGUUGAUCUAAGAAGGAUUCGUGACGU [Eternabot solution 47] (Eterna round: R96, puzzle: Same State NG 2)
Input ligand: FMN 200 uM
  apparent KD of MS2 coat protein: 53.4 nM
[1]
  apparent KD of MS2 coat protein: 59.1 nM
Input ligand: none
  apparent KD of MS2 coat protein: 86 nM

## GGAGAACAUGAGGAUCACCCAUGUAAGAGAAGUGUAGGAUAUGUGAGGAGCAGAGGAGGAACAGAAGGACAUGGAG [JR_SS!_Sub071] (puzzle: Same State 1)
[2]
  apparent KD of MS2 coat protein: 29.8 nM
[3]
  apparent KD of MS2 coat protein: 41 nM
[4]
  apparent KD of MS2 coat protein: 58.3 nM

## UGUUAACAUGAGGAUCACCCAUGUCAAAUGAAGCGAGGAUAUGGAAAGUAAUAAGAUGAACUAGAAGGUGUAGUAG [Altered State 1-20 - Jieux - Same State 1] (puzzle: Same State 1)
[2]
  apparent KD of MS2 coat protein: 37.6 nM
[3]
  apparent KD of MS2 coat protein: 59.4 nM
[4]
  apparent KD of MS2 coat protein: 62 nM

## CUACUACAUGAGGAUCACCCAUGUUGGAGUGAUGCAGGAUAUGUGUGACCAGAAGAUGAAACAGAAGGGCAAAGAA [JR_SS!_Sub003] (puzzle: Same State 1)
[2]
  apparent KD of MS2 coat protein: 41.9 nM
[3]
  apparent KD of MS2 coat protein: 68 nM
[4]
  apparent KD of MS2 coat protein: 96.2 nM

## AUAAAUAAACAUGAGGAUCACCCAUGUGUUAUAUAAGCAAAUAAAUAAAUAAAUAAAUAAAUAAAUAAAUAAAUAAA [RNA Sequence] (puzzle: Sensor for hsa-mir-208a version 2)
[2]
  apparent KD of MS2 coat protein: 25.5 nM
[3]
  apparent KD of MS2 coat protein: 26.1 nM
[4]
  apparent KD of MS2 coat protein: 29.2 nM

## UCAGAGGCGCUAGGAUAUCUCUCCGAGAAGCAGAGAGAAGGAGUGCGGAACCCAAGACCUACAUGAGGAUCACCCAUGUCUCAA [Eternabot solution 27] (Eterna round: R96, puzzle: Same State NG 1)
Input ligand: FMN 200 uM
  apparent KD of MS2 coat protein: 22.8 nM
[1]
  apparent KD of MS2 coat protein: 22.9 nM
Input ligand: none
  apparent KD of MS2 coat protein: 38.7 nM

## UAGAACAAGCUUUUUGCCCGUCUUAUAUAACAUGAGGAUCACCCAUGUAAGGUGAAAGUUAGAGAGUGGAGGAAGAA [JR_SHM208A_Sub053] (puzzle: Sensor for hsa-mir-208a)
[2]
  apparent KD of MS2 coat protein: 95.3 nM
[3]
  apparent KD of MS2 coat protein: 272 nM
[4]
  apparent KD of MS2 coat protein: 123 nM

## CUCAAAACAAGCUGCAGUGUUCGUCUUUCACAUGAGGAUCACCCAUGUAGUAGCCCAGUGGAAGCGCUCGGGCCACC [Eronrace] (puzzle: Sensor for hsa-mir-208a)
[2]
  apparent KD of MS2 coat protein: 55 nM
[3]
  apparent KD of MS2 coat protein: 24.9 nM
[4]
  apparent KD of MS2 coat protein: 54.1 nM

## GCUCGACGUAUUGUCUACAUGAGGAUCACCCAUGUAGGUGCGGAGGAUAUCUACGUGUUUCAUGUAGAGAAGGUCGUGUCGAGC [SameState NG3 #90] (Eterna round: R96, puzzle: Same State NG 3)
Input ligand: FMN 200 uM
  apparent KD of MS2 coat protein: 56 nM
[1]
  apparent KD of MS2 coat protein: 155 nM
Input ligand: none
  apparent KD of MS2 coat protein: 177 nM

## CUGAGAUGUCAAGGAUAUCACGUCGAUUAGACGUGAGAAGGUGAUCUGUACAUGAGGAUCACCCAUGUGUUACAUGGAACUCAG [Brourd's SSNG1/1-A2 mod 10] (Eterna round: R96, puzzle: Same State NG 1)
Input ligand: FMN 200 uM
  apparent KD of MS2 coat protein: 184 nM
[1]
  apparent KD of MS2 coat protein: 30.9 nM
Input ligand: none
  apparent KD of MS2 coat protein: 53.9 nM

## UCUUGGUUUUUGCUCGUUUUUUGUGUUGAACAUGAGGAUCACCCAUGUAUUGUACGGUCCGGUUUAGUAGUGGUCCA [JMF 44] (Eterna round: R96, puzzle: Sensor for hsa-mir-208a)
Input ligand: FMN 200 uM
  apparent KD of MS2 coat protein: 181 nM
[1]
  apparent KD of MS2 coat protein: 81.8 nM
Input ligand: none
  apparent KD of MS2 coat protein: 173 nM

## GGAGCCGACACCGAGGAUAUUCAUAUUAAAACAUGAGGAUCACCCAUGUAGGCCAGAAGGCCUUGGGAGAAGGCGGAUCGGCUCG [Xeonanis - 8] (puzzle: Same State 2)
[2]
  apparent KD of MS2 coat protein: 21.2 nM
[3]
  apparent KD of MS2 coat protein: 240 nM
[4]
  apparent KD of MS2 coat protein: 301 nM

## AAUUAAUUAAUUAAUAUACAUGAGGAUCACCCAUGUAAGAUCAAGGAUAUCAGCUCGUGUAGAGCUGAGAAGGUGAUCACAUGU [SSNG3/16-A4] (Eterna round: R96, puzzle: Same State NG 3)
Input ligand: FMN 200 uM
  apparent KD of MS2 coat protein: 345 nM
[1]
  apparent KD of MS2 coat protein: 92.5 nM
Input ligand: none
  apparent KD of MS2 coat protein: 166 nM

## UGUCCAGCCUGAGCUGGACAAAAGCAUGUACAUGAGGAUCACCCAUGUUCAUGUACAAGCUUUUUGCUCGUCUUACU [salish99_208a_r3_081] (puzzle: Sensor for hsa-mir-208a)
[2]
  apparent KD of MS2 coat protein: 360 nM
[3]
  apparent KD of MS2 coat protein: 14.1 nM
[4]
  apparent KD of MS2 coat protein: 471 nM
